From patent US20020142429 come the findings set out here.

In series [1] the target is rabbit reticulocyte eEF-2, P55823.
Series [2] addresses Dictyostelium myosin (myosin heavy chains), P08799.

Dictyostelium myosin (myosin heavy chains), P08799, sequence (P08799 whole entry): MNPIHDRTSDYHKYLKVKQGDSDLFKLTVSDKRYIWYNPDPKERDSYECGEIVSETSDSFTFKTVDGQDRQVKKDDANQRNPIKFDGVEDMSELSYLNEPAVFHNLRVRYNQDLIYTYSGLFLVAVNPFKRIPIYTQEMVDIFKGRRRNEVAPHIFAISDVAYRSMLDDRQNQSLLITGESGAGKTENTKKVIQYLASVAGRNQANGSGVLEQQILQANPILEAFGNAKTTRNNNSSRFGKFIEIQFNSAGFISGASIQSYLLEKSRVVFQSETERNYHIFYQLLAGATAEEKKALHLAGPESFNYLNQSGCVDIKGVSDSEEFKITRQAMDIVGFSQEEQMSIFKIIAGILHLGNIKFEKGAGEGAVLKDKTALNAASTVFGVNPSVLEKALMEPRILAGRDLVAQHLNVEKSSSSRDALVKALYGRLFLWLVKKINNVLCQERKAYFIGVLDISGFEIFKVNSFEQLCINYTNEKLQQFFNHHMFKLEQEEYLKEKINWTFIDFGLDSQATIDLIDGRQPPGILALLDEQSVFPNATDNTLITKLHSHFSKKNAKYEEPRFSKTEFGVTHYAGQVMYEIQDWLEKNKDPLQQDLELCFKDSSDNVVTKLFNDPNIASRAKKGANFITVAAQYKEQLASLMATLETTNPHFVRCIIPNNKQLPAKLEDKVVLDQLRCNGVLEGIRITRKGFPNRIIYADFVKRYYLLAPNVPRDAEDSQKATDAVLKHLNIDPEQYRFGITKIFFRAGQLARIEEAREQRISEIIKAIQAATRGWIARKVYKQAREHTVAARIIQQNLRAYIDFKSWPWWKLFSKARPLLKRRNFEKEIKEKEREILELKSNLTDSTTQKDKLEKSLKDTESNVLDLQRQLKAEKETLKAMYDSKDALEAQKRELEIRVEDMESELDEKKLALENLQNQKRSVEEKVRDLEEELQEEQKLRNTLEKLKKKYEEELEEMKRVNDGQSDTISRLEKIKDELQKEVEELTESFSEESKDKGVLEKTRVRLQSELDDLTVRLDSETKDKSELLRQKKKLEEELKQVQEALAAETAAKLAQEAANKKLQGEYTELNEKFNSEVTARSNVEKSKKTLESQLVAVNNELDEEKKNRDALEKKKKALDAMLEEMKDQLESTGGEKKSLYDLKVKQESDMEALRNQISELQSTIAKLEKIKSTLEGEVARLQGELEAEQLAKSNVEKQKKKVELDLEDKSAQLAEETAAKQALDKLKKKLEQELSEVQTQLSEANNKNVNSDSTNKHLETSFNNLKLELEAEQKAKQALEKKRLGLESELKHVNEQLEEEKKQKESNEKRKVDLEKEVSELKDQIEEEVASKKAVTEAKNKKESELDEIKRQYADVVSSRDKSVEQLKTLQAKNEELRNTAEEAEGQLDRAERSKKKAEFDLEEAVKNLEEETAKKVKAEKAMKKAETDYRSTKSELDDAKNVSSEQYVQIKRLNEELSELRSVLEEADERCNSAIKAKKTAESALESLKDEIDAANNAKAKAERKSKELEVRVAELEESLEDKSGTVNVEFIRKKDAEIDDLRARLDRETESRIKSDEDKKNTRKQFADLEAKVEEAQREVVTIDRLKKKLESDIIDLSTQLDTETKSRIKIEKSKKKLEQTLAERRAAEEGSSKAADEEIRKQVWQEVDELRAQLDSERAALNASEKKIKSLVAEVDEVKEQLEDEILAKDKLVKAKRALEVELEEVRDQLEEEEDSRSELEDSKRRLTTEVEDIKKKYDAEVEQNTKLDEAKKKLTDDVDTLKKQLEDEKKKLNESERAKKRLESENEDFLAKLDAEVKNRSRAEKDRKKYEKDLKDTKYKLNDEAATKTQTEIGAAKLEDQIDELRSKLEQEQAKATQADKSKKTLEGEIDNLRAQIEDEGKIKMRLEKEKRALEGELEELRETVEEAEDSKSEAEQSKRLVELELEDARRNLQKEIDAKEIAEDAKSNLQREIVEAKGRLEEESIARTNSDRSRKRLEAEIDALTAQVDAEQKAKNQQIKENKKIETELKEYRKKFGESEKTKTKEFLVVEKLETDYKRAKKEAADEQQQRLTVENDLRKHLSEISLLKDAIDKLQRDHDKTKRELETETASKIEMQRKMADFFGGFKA

B1: recombinant C. elegans eEF-2 kinase (translation products of the mixture of Cefk-1 and Cefk-2) (protein)
chain: MTIDTTNESDNSPTNSPGLEASARTFSLNASKMVRITDDYADEVFIEQNDVVIEKPRMDPLHVRKLMETWRKAARRARTNYIDPWDEFNIHEYPVQRAKRYRYSAIRKQWTEDIVDVRLHPDSFARGAMRECYRLKKCSKHGTSQDWSSNYVAKRYICQVDRRVLFDDVRLQMDAKLWAEEYNRYNPPKKIDIVQMCVIEMIDVKGSPLYHLEHFIEGKYIKYNSNSGFVSNAARLTPQAFSHFTFERSGHQMMVVDIQGVGDLYTDPQIHTVVGTDYGDGNLGTRGMALFFHSHRCNDICETMDLSNFELSPPEIEATEVAMEVAAKQKKSCIVPPTVFEARRNRISSECVHVEHGISMDQLRKRKTLNQSSTDLSAKSHNEDCVCPECIPVVEQLCEPCSEDEEDEEEDYPRSEKSGNSQKSRRSRMSISTRSSGDESASRPRKCGFVDLNSLRQRHDSFRSSVGTYSMNSSRQTRDTEKDEFWKVLRKQSVPANILSLQLQQMAANLENDEDVPQVTGHQFSVLGQIHIDLSRYHELGRFVEVDSEHKEMLEGSENDARVPIKYDKQSAIFHLDIARKCGILEAVLTSAHIVLGLPHELLKEVTVDDLFPNGFGEQENGIRADKGQKPCDLEEFGSDLMEIAAEMGDKGAMLYMAHAYETGQHLGPNRRTDYKKSIDWYQRVVGFQEEEELDSDCGKTTFSSFAPLTRHEILAKMAEMYKEGGYGLNQDFERAYGLFNEAAEAAMEAMNGKLANKYYEKAEMCGE
Turning to B1, the “eEF-2 phosphorylation activity in the presence and absence of Ca2+ and calmodulin” value in the series with calmodulin is “The eEF-2 phosphorylation activity of the recombinant protein is Ca^2+/calmodulin-dependant”. The “eEF-2 kinase activity: phosphorylation of eEF-2 with [gamma-32P]ATP, SDS/PAGE and autoradiography” value in series [1] is “The translation products of the mixture of Cefk-1 and Cefk-2 are able to phosphorylate eEF-2”.

B2: human eEF-2 kinase glutathione S-transferase fusion protein (protein)
chain: MADEDLIFRLEGVDGGQSPRAGHDGDSDGDSDDEEGYFICPITDDPSSNQNVNSKVNKYYSNLTKSERYSSSGSPANSFHFKEAWKHAIQKAKHMPDPWAEFHLEDIATERATRHRYNAVTGEWLDDEVLIKMASQPFGRGAMRECFRTKKLSNFLHAQQWKGASNYVAKRYIEPVDRDVYFEDVRLQMEAKLWGEEYNRHKPPKQVDIMQMCIIELKDRPGKPLFHLEHYIEGKYIKYNSNSGFVRDDNIRLTPQAFSHFTFERSGHQLIVVDIQGVGDLYTDPQIHTETGTDFGDGNLGVRGMALFFYSHACNRICESMGLAPFDLSPRERDAVNQNTKLLQSAKTILRGTEEKCGSPQVRTLSGSRPPLLRPLSENSGDENMSDVTFDSLPSSPSSATPHSQKLDHLHWPVFSDLDNMASRDHDHLDNHRESENSGDSGYPSEKRGELDDPEPREHGHSYSNRKYESDEDSLGSSGRVCVEKWNLLNSSRLHLPRASAVALEVQRLNALDLEKKIGKSILGKVHLAMVRYHEGGRFCEKGEEWDQESAVFHLEHAANLGELEAIVGLGLMYSQLPHHILADVSLKETEENKTKGFDYLLKAAEAGDRQSMILVARAFDSGQNLSPDRCQDWLEALHWYNTALEMTDCDEGGEYDGMQDEPRYMMLAREAEMLFTGGYGLEKDPQRSGDLYTQAAEAAMEAMKGRLANQYYQKAEEAWAQMEE
As for B2, in the series with calmodulin, the “phosphorylation of eEF-2 and autophosphorylation, dependence on calmodulin” value was “the ability of the recombinant enzyme to phosphorylate eEF-2 and to undergo autophosphorylation are strictly calmodulin-dependent (data not shown)”. Moreover, in series [1], the “ability to phosphorylate eEF-2” value is reported as “All of the fusion eEF-2 kinase preparations were able to efficiently phosphorylate eEF-2 (data not shown)”; the “phosphorylation of eEF-2” value is “the ability of the recombinant enzyme to phosphorylate eEF-2 and to undergo autophosphorylation are strictly calmodulin-dependent (data not shown)”.

B3: human eEF-2 kinase 6xHis fusion protein (protein)
chain: B2 chain
Consider B3, for which the “ability to phosphorylate eEF-2” value in series [1] is “All of the fusion eEF-2 kinase preparations were able to efficiently phosphorylate eEF-2 (data not shown)”.

B4: recombinant human eEF-2 kinase (expressed in a coupled transcription/translation system) (protein)
chain: B2 chain
Consider B4, for which the “eEF-2 kinase activity in the presence and absence of Ca2+ and calmodulin” value with calmodulin is “the recombinant human eEF-2 kinase activity was strictly Ca^2+/calmodulin-dependant”.

B5: human eEF-2 kinase thioredoxin fusion protein (protein)
chain: B2 chain
As for B5, the “ability to phosphorylate eEF-2” value in series [1] is on record as “All of the fusion eEF-2 kinase preparations were able to efficiently phosphorylate eEF-2 (data not shown)”.

B6: myosin heavy chain kinase A (MHCK A) from Dictyostelium (protein)
chain: MFNIKKRKESITGIPPINVNSPQSVPLSGTLQSPLITPNSPNFVSRQCPFKKFGCSSFLVSKAEFDNHLKDDAQFHLQLAVEKFDHQFDLHTQLMAHFTEQMEDQLEKTMKVVRNHTDSLGGNVQTKLDEGIEKCMAFAKKVEQQQQQLAKRLITQQIQEKKSTSSPLVKGGISGGGGSGGDDSFDGANISSMSTSKQELQQELQSLSIKMKKELTELSDELSQKLERSTGNIDIKIKRIEGEVNEKIDKRQLVSTIDDSIGKKTDSIGYTLESSIIKKVEEKEKKKSEQNQLLFDSKIESLKDKIKIIETQQLDTSSEVRKLKLESTSSGNLMAGLNGTSGRPSSSSHFIPSSVSAAANNINKNEIMEEVKKVEEKLQKKIREEIDNTKSELSKVERSVKDNRSEIEGLEKDCKNQFDKQDNKIKQVEDDLKKSDSLLLLMQNNLKKYNEFVDRERDRESERLKLQDSIKRLEQNQKKIEAEIQEGNEQVERVLREEASISPISSVPKSPITTKRSSIILNSPPMTSQQSSPKIQDLLSSSGSSSVSGINISSETGEMGILWEFDPIINKWIRLSMKLKVERKPFAEGALREAYHTVSLGVGTDENYPLGTTTKLFPPIEMISPISKNNEAMTQLKNGTKFVLKLYKKEAEQQASRELYFEDVKMQMVCRDWGNKFNQKKPPKKIEFLMSWVVELIDRSPSSNGQPILCSIEPLLVGEFKKNNSNYGAVLTNRSTPQAFSHFTYELSNKQMIVVDIQGVDDLYTDPQIHTPDGKGFGLGNLGKAGINKFITTHKCNAVCALLDLDVKLGGVLSGNNKKQLQQGTMVMPDILPELMPSDNTIKVGAKQLPKAEFSKKDLKCVSTIQSFRERVNSIAFFDNQKLLCAGYGDGTYRVFDVNDNWKCLYTVNGHRKSIESIACNSNYIFTSSPDNTIKVHIIRSGNTKCIETLVGHTGEVNCVVANEKYLFSCSYDKTIKVWDLSTFKEIKSFEGVHTKYIKTLALSGRYLFSGGNDQIIYVWDTETLSMLFNMQGHEDWVLSLHCTASYLFSTSKDNVIKIWDLSNFSCIDTLKGHWNSVSSCVVKDRYLYSGSEDNSIKVWDLDTLECVYTIPKSHSLGVKCLMVFNNQIISAAFDGSIKVWEWQSK
B6: the “phosphorylation assay (substrate specificity), 10 min” value was “each of these kinases is specific for their respective substrates” in series [2] and “MHCK A cannot phosphorylate eEF-2” in series [1].

B7: rabbit reticulocyte eEF-2 kinase (protein)
chain: ADEDLIFRLEGLGGHQSSQTGHDGDSDADSDEEEGYFICPITDDPQSNQNVNSKINNYYSNLTKSERYGSSGSPASSFHFKEAWKHAIEKAKHMPDPWAEFHLEDIATECATRHRYNAVTGEWLQDEVLIKMASQPFGRGAMRECFRTKKLSNFLHAQQWKGASNYVAKRYIESVDRDVYFEDVRLQMEAKLWGEEYNRHKPPKQVDIMQMCIIELTERPGKPLFHLEHYIEGKYIKYNSNSGFVRDDNIRLTPQAFSHFTFERSGHQLIVVDIQGVGDLYTDPQIHTETGTDFGDGNLGVRGMALFFYSHACNRICKSMGLAPFDLSPREQDAVNQNTKLLQSAKTILRGTEEKCGSPRVRTLSGSRPPLLLRLSENSGDENMSDVTFDSLPSSPSSATPHSQKLDHLHWPVFSDLDNMAAREQDHLDNQRDSENSGDSGYPSEKRSELDDPEPREHGHSNGNRRCESDEDSLGSSGRVCVEKWNLLNPSRLHLPRASAVALEVQRLNALDLERKIGKSVLGKVHLAMVRYHEGGRFCDRDEEWDRESAVFHLEHAADLGELEAIVGLGLMYSQLPHHILADVSLKDTKENKTKGFDYLLKAAEAGDRQSMILVARAFDTGQNLSPERSRDWQEALHWYNSALEMTDCDEGGEYDGVQDEPRYTLLAREAEMLFTGGCGLDKDPQRSGDLYTQAAEAAMEAMKGRLANQYYQKAEEAWAQMEE
Turning to B7, the results for the “phosphorylation assay (substrate specificity), 10 min” value in series [2] and in series [1] were “rabbit eEF-2 kinase cannot use myosin heavy chains as a substrate” and “each of these kinases is specific for their respective substrates”, respectively.
